Key:
Arabidopsis seedlings = assay: Hypocotyl length and growth phenotype of transgenic lines; assay type: in vivo; details: over-expression from 35S promoter in Col-0
Description: BKI1's function in brassinosteroid signaling was explored in several ways. First, we made transgenic plants harboring a β-glucuronidase (GUS) reporter gene expressed from the promoter of BKI1 to observe the expression pattern of BKI1 (FIG. 1G-J) during development. […] To explore the function of BKI1 in BRI1 signaling, we created RNAi (RNA interference) lines to knockdown BKI1 RNA levels.
Seedlings were grown in short day photoperiods for seven days. At least ten short-day grown seedlings were measured. In FIGS. 2A-B the pBKI1::GUS line was used as a control (control). RNAi-2 and RNAi-7 were two independent RNAi knockdown lines for BKI1. In FIG. 2 C-E, phenotype of plants overexpressing BKI1-FLAG, with Col-0 (left) and a BKI1-FLAG line (right) are shown. 2C. Short-day grown seedlings. 2D. Long-day grown seedlings. 2E. Long-day grown adult plants. In FIG. 2F, leaf morphology of seedlings grown in short days. Col-0 (right) and a BKI1-FLAG line (left) are shown. In FIG. 2G, over-expression of BKI1-YFP leads to a reduced response (hypocotyl length) to BL. At least twenty short-day grown seedlings were measured. In FIG. 2H, over-expression of BKI1-YFP leads to an enhanced response to BRZ220. At least twenty dark-grown seedlings were measured. In FIG. 2I, over-expression of BKI1-YFP results in reduced accumulation of dephosphorylated BES1. […]

[1] = molecular target: T1, intracellular domain of BRI1 (BRI1-KD) (Arabidopsis thaliana, UniProt O22476); assay: Yeast two-hybrid interaction with BRI1-KD; assay type: binding
T1 construct: expressed in transfected cells; host or cells: yeast strain MaV203
T1 sequence (O22476 828-1196): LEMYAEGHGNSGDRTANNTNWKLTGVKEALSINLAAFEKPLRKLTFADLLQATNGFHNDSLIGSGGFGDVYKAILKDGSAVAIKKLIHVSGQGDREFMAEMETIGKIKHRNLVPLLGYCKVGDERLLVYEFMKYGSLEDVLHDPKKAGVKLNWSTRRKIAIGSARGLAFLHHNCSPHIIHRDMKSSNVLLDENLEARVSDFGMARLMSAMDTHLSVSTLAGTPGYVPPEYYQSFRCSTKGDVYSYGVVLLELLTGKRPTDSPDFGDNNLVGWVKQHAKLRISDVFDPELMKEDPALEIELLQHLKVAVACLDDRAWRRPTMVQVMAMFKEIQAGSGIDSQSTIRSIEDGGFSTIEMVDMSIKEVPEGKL
Description: (§1) A ProQuest Two-Hybrid system with Gateway technology (Invitrogen) was used. […] The full-length (BKI1-FL), and various truncated proteins, 1-252 (BKI1-ΔCT1), 1-299 (BKI1-ΔCT2), and 253-337 (BKI1-CT) of BKI1 were cloned into the pEXPAD502 vector. The kinase domain of NIK1 (NIK1-KD) (Fontes et al. (2004) Genes Dev. 18:2545), BAK1 (BAK1-KD), CLV1 (CLV1-KD), BRL1 (BRL1-KD), BRL3 (BRL3-KD), full length TTL, and full-length BIN2 were cloned into the pDBLeu vector. Interactions were tested on SD medium minus Leu, Trp, and His, and containing 25 mM 3-Amino-1,2,4-Triazole (3AT), using the yeast strain MaV203 according to the manufacturer's manual.

BAK1 = molecular target: T2, BAK1 (Arabidopsis thaliana, UniProt Q94F62); assay: Yeast two-hybrid interaction with BAK1-KD; assay type: binding
T2 construct: kinase domains of other receptor-like kinases tested, including BAK1 and NIK1; expressed in transfected cells; host or cells: yeast strain MaV203
T2 sequence (Q94F62 289-576 limits assumed): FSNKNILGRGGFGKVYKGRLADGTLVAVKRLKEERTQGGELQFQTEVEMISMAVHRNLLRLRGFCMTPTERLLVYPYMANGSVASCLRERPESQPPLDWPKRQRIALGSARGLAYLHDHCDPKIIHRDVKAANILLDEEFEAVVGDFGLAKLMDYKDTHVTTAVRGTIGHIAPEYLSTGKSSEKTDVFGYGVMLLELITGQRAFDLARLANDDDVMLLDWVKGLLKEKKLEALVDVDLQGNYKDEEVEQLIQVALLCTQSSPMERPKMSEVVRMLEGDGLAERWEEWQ
Description: as §1

CLV1 = molecular target: T3, CLV1 (Arabidopsis thaliana, UniProt Q9SYQ8); assay: Yeast two-hybrid interaction with CLV1-KD; assay type: binding
T3 construct: expressed in transfected cells; host or cells: yeast strain MaV203
T3 sequence (Q9SYQ8 692-968 limits assumed): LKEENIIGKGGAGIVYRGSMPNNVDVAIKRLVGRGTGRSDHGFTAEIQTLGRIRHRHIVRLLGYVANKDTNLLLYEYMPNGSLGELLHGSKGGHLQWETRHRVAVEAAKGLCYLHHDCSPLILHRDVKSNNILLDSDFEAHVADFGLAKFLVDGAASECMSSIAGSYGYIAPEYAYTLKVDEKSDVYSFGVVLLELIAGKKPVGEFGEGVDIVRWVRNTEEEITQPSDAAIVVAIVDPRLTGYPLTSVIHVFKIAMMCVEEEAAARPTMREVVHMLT
Description: BKI1 fused with GAL4-AD (BKI1-pEXAD502) interacts with the intracellular domain of BRI1 (BRI1-KD), but not CLV1 (CLV1-KD), BRL1 (BRL1-KD), and BRL3 (BRL3-KD), fused with GAL4-DB (in pDBLeu) in yeast. pDBLeu was used as a negative control. Each spot from left to right contains 10 μl yeast cell culture with OD600=0.2, 0.04, 0.008, and 0.0016.

[2] = molecular target: kinase-inactive BRI1 (mBRI1-KD) (Arabidopsis thaliana, UniProt O22476, K911E); details: yeast two-hybrid, ONPG liquid culture assay
Chain of kinase-inactive BRI1 (mBRI1-KD) (O22476 828-1196 K911E): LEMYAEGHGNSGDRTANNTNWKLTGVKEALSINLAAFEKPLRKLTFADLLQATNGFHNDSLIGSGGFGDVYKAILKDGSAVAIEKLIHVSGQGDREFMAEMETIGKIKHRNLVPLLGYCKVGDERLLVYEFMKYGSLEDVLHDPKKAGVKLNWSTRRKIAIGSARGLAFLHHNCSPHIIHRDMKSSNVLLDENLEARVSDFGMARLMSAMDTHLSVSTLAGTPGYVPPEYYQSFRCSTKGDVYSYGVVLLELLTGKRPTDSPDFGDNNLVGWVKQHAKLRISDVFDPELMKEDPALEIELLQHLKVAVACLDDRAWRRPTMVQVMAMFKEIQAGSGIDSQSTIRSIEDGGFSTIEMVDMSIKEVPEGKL
Description: as §1

B1: BKI1: BRI1-interacting protein of 337 amino acids, negative regulator of brassinosteroid signaling (SEQ ID NO:1) (protein, listed as Arabidopsis thaliana)
chain: METNLQQVKNSSQTFSEKQNPKQEASPSPISSTCSSPSHDFSFTISLQPLSSSSKHISPTLRSPSKTTSSYQQTDPFAVDLSPADEIFFHGHLLPLHLLSHLPVSPRTSTGSYNDGFTLPVKDILPDQPTNNNNNTENAITNISTEAKDDNTEDKAEGEIRVKTKPIKSFSLFGLSKWRKGFESNEREQEQQQQKIKKPMSLDLSHAVKKYIRMLFQKRGNGTQFWNRRQTSSYSFSSSLMGPNGNSKTMINGSYNKRDLIRGRRGELFSAPASMRTSPTNSGHLRVSTAGLSSSSGSTSSSSSDSTMEELQAAIQAAIAHCKNSSAVDRDDKVKDS
Arabidopsis seedlings
  plant phenotype on over-expression: dwarf plants
[1]
  interaction with kinase domain of BRI1 in yeast: associated specifically
BAK1
  interaction with kinase domain of BAK1 in yeast: not
CLV1
  interaction with kinase domain of CLV1 in yeast: does not interact
[2]
  interaction with kinase-inactive BRI1 relative to kinase active BRI1: stronger

Reference: patent publication US8008542B2, “Compositions, cells, and plants that include BKI1, a negative regulator of BRI1-mediated BR signaling” (The Salk Institute for Biological Studies, priority 2007, dated 2011)
